This test concerns the target T1, ScUba4 (Saccharomyces cerevisiae Uba4) (S. cerevisiae, UniProt P38820 1-440).
T1 sequence: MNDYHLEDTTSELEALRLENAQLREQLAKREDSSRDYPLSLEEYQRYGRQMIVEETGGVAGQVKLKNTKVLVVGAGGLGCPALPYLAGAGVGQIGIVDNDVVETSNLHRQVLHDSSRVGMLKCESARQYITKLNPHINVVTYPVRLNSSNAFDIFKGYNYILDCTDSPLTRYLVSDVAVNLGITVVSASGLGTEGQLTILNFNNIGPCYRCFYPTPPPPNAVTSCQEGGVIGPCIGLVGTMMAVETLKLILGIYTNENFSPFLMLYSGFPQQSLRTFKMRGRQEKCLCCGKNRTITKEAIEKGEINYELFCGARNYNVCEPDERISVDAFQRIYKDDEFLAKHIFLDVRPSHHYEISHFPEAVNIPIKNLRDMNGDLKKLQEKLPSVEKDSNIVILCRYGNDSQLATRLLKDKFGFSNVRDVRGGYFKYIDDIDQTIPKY
In words: SEC. A general note: In gel filtration, larger molecules generally elute earlier.

B1: Thiocarboxylated ScUrm1 (natural protein)
chain: MVNVKVEFLGGLDAIFGKQRVHKIKMDKEDPVTVGDLIDHIVSTMINNPNDVSIFIEDDSIRPGIITLINDTDWELEGEKDYILEDGDIISFTSTLHGG
modifications: thiocarboxylate at the C-terminus
As for B1, the binding result is recorded as “binds”.

For the origin of these results see paper PMC11662940 (Nucleic Acids Research, 2024).
